Data: US20200318093A1

Key:
[1] = molecular target: casein sodium ("MIPRODAN", Nippon Shinyaku); test: cell-based or functional assay
[2] = molecular target: Rice proteins
[3] = molecular target: Soybean proteins
[4] = molecular target: bovine-derived alkaline gelatin (Sigma)
[5] = molecular target: casein sodium ("MIPRODAN", Nippon Shinyaku)
[6] = molecular target: cornmeal gluten (Sigma)
[7] = molecular target: fish-derived gelatin (Nippi)
[8] = molecular target: milk whey protein ("BiPro", Davisco)
[9] = molecular target: T1, ovalbumin (Sigma), P01012
T1 chain: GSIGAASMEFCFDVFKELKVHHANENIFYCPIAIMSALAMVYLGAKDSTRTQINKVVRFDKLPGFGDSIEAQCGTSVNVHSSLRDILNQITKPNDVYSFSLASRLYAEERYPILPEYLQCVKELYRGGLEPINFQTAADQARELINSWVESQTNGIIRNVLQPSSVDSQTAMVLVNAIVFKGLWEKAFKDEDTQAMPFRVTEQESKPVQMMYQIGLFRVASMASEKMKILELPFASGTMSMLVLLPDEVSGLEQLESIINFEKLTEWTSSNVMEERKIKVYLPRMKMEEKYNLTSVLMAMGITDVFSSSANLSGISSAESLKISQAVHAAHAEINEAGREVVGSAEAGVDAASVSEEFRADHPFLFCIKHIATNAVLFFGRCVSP

[10] = molecular target: porcine-derived acidic gelatin (Sigma)
[11] = molecular target: skim milk powder (Yotsuba Milk Products, low heat type)
[12] = molecular target: α-casein (Sigma)
[13] = molecular target: α-lactalbumin (Sigma)
[14] = molecular target: casein sodium ("MIPRODAN", Nippon Shinyaku); test: cell-based or functional assay; remark: listed apart in the source
[15] = molecular target: Insulin B chain (Sigma)

## protein asparaginase of Leifsonia xyli AJ111071 (NITE P-01649) (enzyme)
[1]
  released ammonia (3 h reaction with culture supernatant, control subtracted): 0.289 mM

B1: protein asparaginase of Luteimicrobium album AJ111072 (NITE P-01650) (protein)
chain: AVTADDGSTPGTAAYLEDDYDFGDQAVPLANIGGIRGEMTGRIYLPTTAGAHPTVILLHGRHSSCTVPTGGGSVSNPNRWPCIAPQVNIPSYKGYESTAQNLATHGYAVVSISANAINANDNQLAPDYGAQARGQLVLDTLAMLRKANAGEPVSFHDAATDRTVDLASALAVSTEAEDLGSAPTSATNPGDAITPADLVGAFDLDDVGLMGHSRGGEGVVSAVNLNQKLAKPFGIKSVLPLAPVDFGRETAADTNMLVILPYCDGDVSNQQGQHFSDDSRYAYDDDSLRSTLWVMGADHNFFNSVWTPGKYPLSTSDDWGATSTDAVCGPLAPTNVRLSADDQYDVGVAVMSAWFRLTLGGEDQFLPLFDGSADPTLTSVPSAKLWSTATAPATKRADIEAFTANTSRVRVYGSATESVCASAGGRTLPQDAQPCATASALRSTSAMPHWTPASFAPNVPASPMGRFLWTSVSGSTAGSIRVTVPAAARDASEQDALTFKTAPDESVLTGTDLTVTVVDGHGATWSSAVSALNAGAVKRLPISGSTTLNKIVLQQVSVPVSTLAGSIDVSDVREVRFAGATGADGTATGGAYLSDLAFVSSGVGTVAGIASVPTVNVASTVVEEGSSVDEARVAVVLDQPADRTVSAWFTLMGSTADSSNAGLAAQKVTFQPGQTCQAVTVTILGNTVAGAAATTAYKADVSAPDGVIVGAAQFGTFTVREDDALTSGGALAPAVGTQGDVCAEYAARSVVQELTTSGDAVAGSHVTLTGSGYRVGESVAFTDGDAVLGTVLAGADGTAALDWAVPADARVGGHDVTAVGAGSARTAKATVTVRSATTTTLAIAPAAPAVGKAVTLTATVAGPDTAGTVTFADGSTVLGRVAVKDGRAALVVSGGFDAGTHTLTAAFGQTATAEGSVSPAVTFTLVKGKTTTVFVLAATRTTYGTAVAGRIVVGGADGGVATITVGNVVRSVRLDAHGAGSFTVPGTLKPATYRVTASYAGSRTLDTSSARASLTVLKAAPKVTLSAPATARKGATVTVTVKVVGVKGGVRPTGKAVVKLGGKAVKTVSVPSSGVVKVKVRLASAGTAKVTAAYQGSAYYTAASAAAKVKVKVVTK
[2]
  Amount of generated ammonia: 0.04 mM
[3]
  Amount of generated ammonia: 0.98 mM
[4]
  Amount of generated ammonia: 0.73 mM
[5]
  Amount of generated ammonia: 2.98 mM
[6]
  Amount of generated ammonia: 0.41 mM
[7]
  Amount of generated ammonia: 1.27 mM
[8]
  Amount of generated ammonia: 1.17 mM
[9]
  Amount of generated ammonia: 0.01 mM
[10]
  Amount of generated ammonia: 2.23 mM
[11]
  Amount of generated ammonia: 1.22 mM
[12]
  Amount of generated ammonia: 4.69 mM
[13]
  Amount of generated ammonia: 1.84 mM
[14]
  released ammonia amount (0.68 U/ml enzyme solution): 1 mM
  released ammonia amount (2.7 U/ml enzyme solution): 1.3 mM

B2: protein asparaginase of Leifsonia xyli AJ111071 (NITE P-01649) (protein)
chain: LPVRRRIALTVAAALIPVVALTTAPAALAAPAPDPVVASGSDWAVTTSPGGYLVTLDLDEPLPMVDDAPTLVVDGEPIGLATESADGLTLGVVTTDPAVASASSVTKGWSSGADDKAAETPEAPATPAVPENTTLTEQLKSFAQLVAVEDPADLGSYTVTEAEYDFGDQAVPLAAIGGIRGELTGKMYLTNATGARPTVVLLHGRHTSCSGTGANPLRWPCGPTQMNIRSYLGYEGTARALASRGYNVLSIAANAVNSNDNQLALDYGAQARGRLVLDTLGMLAKATAGDAVAYDDITTATDTVPSTTTTRTLDEALLRATTRADQPAAASGITAASLKGRFDLGHVGIMGHSRGGEGVVSAATLNQALAKPYGIESVLPLAPVDFGRMTLPDVPTAVFLPYCDGDVSNQQGQHFIDDSRHAFDDDVLRSAVWVMGANHNFFNTVWTPGLYPAATGDDWRTTDTTSTCATTNPTRMTAAQQYQVGVSYMTGFFRLTMGGETRFQSLFDGSVKPSTASTAYADVRTMATQPASKTSLVNDFTETSSLVRVSGGATAAVCTNLTGRTVPQSLPFCATTKASAQVPHWTPGSFAPNVPEFPVTRFLWTGASTTDPAVPSTGELRVTVPAKDRDASRHSQLTLKTAPDEAVQTGTDFRITVVDGAGKTFATTASAVNPLAVNRMPGGTNTTLNKVVLQQLTIPTSTITGIDLTDVREVRLTAAIGADGTGTGGVYLSDLAFDTPSVGTAVAQTRTTVNVAPTTVEEGDGPGTADVAVYLNRAEKSAVTAYVSVIGSATAAVGIGMEKVAFAPGETCKAVTVPTLGNTATSAAPSSAFKVSVTNSTNAVMGASAFANLTVREDDGVTGAAPALAPVGAQGDVCTELAAATTPVPLETSAEDVAPGGSFTLRATGYRAGETVAFRYGATDLGTQVAATDGTASVVVTVPEDADLGPAEATASGSGSGRAATVSVSVLAPTETTVTVTPAKPTAGQ
[15]
  N-terminus sequence of the insulin B chain after 8 h reaction (protein sequencer): asparagine of the third residue from the N-terminus of the insulin B chain was converted into aspartic acid by deamidation
